Laboratory results published in patent US20210301003A1 (Eli Lilly, published 2021).
Values belong to the molecule of their own block, whether it stands above or below them.

Columns and labels:
[1] = target: β-amyloid peptide (1-42) conjugated to BSA (Aβ1-42-Cys-BSA conjugate) (bovine); assay: competitive ELISA on Aβ1-42-BSA against biotinylated Mu266 (0.3 µg/ml), second set of three experiments
[2] = target: β-amyloid peptide (1-42) conjugated to BSA (Aβ1-42-Cys-BSA conjugate) (bovine); assay: competitive ELISA on Aβ1-42-BSA against biotinylated Mu266 (0.3 µg/ml), first set of three experiments
[3] = target: Aβ 1-40 peptide (human); assay: KinExA 3000 equilibrium analysis, 37 C, Fab with serially diluted human soluble Abeta (1-40)
[4] = target: T1, β-amyloid peptide (1-42) conjugated to BSA (Aβ1-42-Cys-BSA conjugate) (bovine, maleimide-activated; Cys43 coupled to maleimide-activated bovine serum albumin); assay: competitive ELISA on Aβ1-42-BSA against biotinylated Mu266 (0.3 µg/ml), first set of three experiments
T1 construct: Coated on ELISA plates at 10 µg/mL; also called Aβ1-42-BSA conjugate; Aβ1-42-Cys43
Procedure: (§1) The Aβ142-BSA conjugate was prepared by dissolving 7.5 mg of Aβ₁₋₄₂-Cys₄₃ (C-terminal cysteine Aβ₁₋₄₂, AnaSpec) in 500 μL of dimethylsulfoxide, and then immediately adding 1,500 μL of distilled water. Two (2) milligrams of maleimide-activated bovine serum albumin (Pierce) was dissolved in 200 μL of distilled water. The two solutions were combined, thoroughly mixed, and allowed to stand at room temperature for two (2) hours. A gel chromatography column was used to separate unreacted peptide from Aβ₁₋₄₂-Cys-BSA conjugate.
(§2) After washing the wells with phosphate buffered saline (PBS) containing 0.1% Tween 20 (Washing Buffer) using an ELISA plate washer, the wells were blocked by adding 300 μL of SuperBlock reagent (Pierce) per well. After 30 minutes of blocking, the wells were washed Washing Buffer and excess liquid was removed.
(§3) As a background control, 100 μl of ELISA Buffer was added. The ELISA plate was incubated at room temperature for 90 min. After washing the wells with Washing Buffer, 100 μl of 1 μg/ml HRP-conjugated streptavidin (Cat #21124, Pierce) was added to each well. […] Absorbance was read at 415 nm. The absorbances were plotted against the log of the competitor concentration, curves were fit to the data points (using Prism) and the IC50 was determined for each antibody using methods well-known in the art.

[5] = target: T1, β-amyloid peptide (1-42) conjugated to …; assay: competitive ELISA on Aβ1-42-BSA against biotinylated Mu266 (0.3 µg/ml), second set of three experiments
Procedure: as §1, §2, §3

IC50 [1]: 3.87 µg/mL | IC50 [2]: 4.7 µg/mL
Molecule: Mouse monoclonal antibody 266 (Mu266)

Kd [3]: 0.24 nM
Molecule: m266-Fab (Fab fragment of murine monoclonal antibody 266)

IC50 [4]: 7.5 µg/mL | IC50 [5]: 4 µg/mL
B1: humanized 266 antibody (Hu266) (antibody, human IgG1, kappa, V domains shown)
VH: EVQLVESGGGLVQPGGSLRLSCAASGFTFSRYSMSWVRQAPGKGLELVAQINSVGNSTYYPDTVKGRFTISRDNAKNTLYLQMNSLRAEDTAVYYCASGDYWGQGTLVTVSS
VL: DVVMTQSPLSLPVTLGQPASISCRSSQSLIYSDGNAYLHWFLQKPGQSPRLLIYKVSNRFSGVPDRFSGSGSGTDFTLKISRVEAEDVGVYYCSQSTHVPWTFGQGTKVEIKR
notes: Mature antibody expressed from pVk-Hu266 and pVg1-Hu266 in Sp2/0 cells; also called exemplified anti-Aβ antibody
